# Values quoted from earlier work as cited in paper PMC6826157.
# Columns and labels:
# Asp137 = Asp137 (UniProt position 137, SNYFFDTTQGH); test: kinetics; details: V/K profile with the natural substrate L-tryptophan (free enzyme plus substrate)
# Lys270 = Lys270 (UniProt position 270, AMSAKKDAMVP); test: kinetics; details: V/K profile with the natural substrate L-tryptophan (free enzyme plus substrate)
substance,measurement,setting,value
"Tryptophan indole-lyase (tryptophanase, TIL, EC 4.1.99.1) (Escherichia coli)",pKa,Asp137,6.0 ± 0.2
same,pKa,Lys270,7.6 ± 0.09
